Results on five molecules are retold here after US20150191542A1 (INNATE PHARMA S A, published 2015).

In assay [1] the target is T1, MICA*001 expressed on transfected cells (human).
T1 construct: the cells carry the complete allele; also called C1R-MICA*001; C1R-MICA*01
T1 chain: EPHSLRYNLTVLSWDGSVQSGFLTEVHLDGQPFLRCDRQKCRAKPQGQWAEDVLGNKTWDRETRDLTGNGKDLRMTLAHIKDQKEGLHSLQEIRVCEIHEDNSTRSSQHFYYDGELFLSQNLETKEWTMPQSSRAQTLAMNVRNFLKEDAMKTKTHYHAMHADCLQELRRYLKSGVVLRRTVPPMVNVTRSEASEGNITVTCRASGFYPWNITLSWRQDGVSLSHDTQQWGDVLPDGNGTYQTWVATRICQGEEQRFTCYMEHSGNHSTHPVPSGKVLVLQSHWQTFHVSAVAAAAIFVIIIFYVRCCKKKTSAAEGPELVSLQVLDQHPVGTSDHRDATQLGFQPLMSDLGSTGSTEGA
Nature of the assay: flow cytometry, MFI against antibody concentration on C1R-MICA*01 cells. The method, then:
(§1) The binding of antibodies obtained from the first and second immunization series (including 9C10, 20C6 and 16A8) were tested for binding to MICA-expressing CR1 transfectant cells C1R-MICA*001, C1R-MICA*004, C1R-MICA*007 and C1R-MICA*008 (Pr. A. Steinle, Eberhard-Karls University Tuebingen, Germany) described in Salih et al. (2003) Blood 102(4): […]. Binding was analyzed by flow cytometry.
(§2) Cells were harvested and stained in PBS 1×/BSA 0,2%/EDTA 2 mM buffer during 30 minutes at 4° C. using a dose-range of the anti-MICA mAbs. After two washes in staining buffer, cells were stained for 30 min at 4° C. with goat anti-mouse (H+L)-PE polyclonal antibodies (1/200). After two washes, stainings were acquired on a BD FACS Canto II and analyzed using the FlowJo software.
Background: In flow cytometry, cells or beads pass a laser one at a time.

The target in assay [2] is T2, MICA*004 expressed on C1R transfectant cells (human, UniProt Q29983 24-297, Glycosylated on cells; the letters do not carry this.).
T2 construct: also called C1R-MICA*004; C1R-MICA*04
T2 chain: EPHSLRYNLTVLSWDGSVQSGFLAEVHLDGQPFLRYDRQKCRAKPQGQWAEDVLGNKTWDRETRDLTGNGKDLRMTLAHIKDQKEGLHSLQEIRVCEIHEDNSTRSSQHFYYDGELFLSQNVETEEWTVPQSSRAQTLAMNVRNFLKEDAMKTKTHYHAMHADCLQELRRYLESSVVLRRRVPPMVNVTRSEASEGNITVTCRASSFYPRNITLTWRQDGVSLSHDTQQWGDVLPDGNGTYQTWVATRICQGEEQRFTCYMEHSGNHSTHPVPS
Nature of the assay: flow cytometry, MFI against antibody concentration on C1R-MICA*04 cells.

The target in assay [3] is T3, MICA*008 expressed on C1R transfectant cells (human, UniProt Q29983 24-297, Glycosylated on cells; the letters do not carry this.).
T3 construct: also called C1R-MICA*008; C1R-MICA*08
T3 chain: T2 chain with V122L, S175G, R181T, T213I, Q251R
Nature of the assay: flow cytometry, MFI against antibody concentration on C1R-MICA*08 cells.

Assay [4] has as its target T4, MICA*007 expressed on C1R transfectant cells (human, UniProt Q29983 24-297, Glycosylated on cells; the letters do not carry this.).
T4 construct: also called C1R-MICA*007; C1R-MICA*07
T4 chain: T2 chain with Y36C, V122L, V129M, E173K, S175G, R181T, S206G, R210W, T215S
Nature of the assay: flow cytometry, MFI against antibody concentration on C1R-MICA*07 cells.

Assay [5] concerns the target T3, MICA*008 expressed on C1R transfectant …. Nature of the assay: flow cytometry, MFI against antibody concentration on C1R-MICA*08 cells. The method, then: as §1, §2
Assay [6] addresses T4, MICA*007 expressed on C1R transfectant …. Nature of the assay: flow cytometry on C1R-MICA*007 cells, 3-parameter logistic fit. The method, then:
as §1, §2
(§3) Antibodies 9C10, 20C6 and 16A8 bound to each of the C1R-MICA*001, C1R-MICA*004, C1R-MICA*007 and C1R-MICA*008 cells (see FIGS. 3A, 3B and 3C for antibodies 9C10, 20C6 and 16A8 respectively). […] EC50 values are shown in Table C in μg/ml (calculated using a 3-parameter logistic fit).

In assay [7] the target is T2, MICA*004 expressed on C1R transfectant …. Nature of the assay: flow cytometry on C1R-MICA*004 cells, 3-parameter logistic fit. On the procedure:
as §1, §2, §3

Assay [8] has the same target. Nature of the assay: flow cytometry, MFI against antibody concentration on C1R-MICA*04 cells. On the procedure: as §1, §2
The target in assay [9] is T3, MICA*008 expressed on C1R transfectant …. Nature of the assay: flow cytometry on C1R-MICA*008 cells, 3-parameter logistic fit. The method, then: as §1, §2, §3
For assay [10], the target named is T5, recombinant human MICA extracellular domain recombinant-Fc protein (MICA*019 allele) (human, UniProt Q29983 24-297).
T5 construct: Bought from R&D Systems; also called MICA*019-Fc; MICA-Fc; not shown: Fc part of the bought fusion protein (R&D Systems)
T5 chain: T2 chain with V122L, R181T, T213I, Q251R
Nature of the assay: SPR Biacore T100 (FIG. 1). On the procedure: The binding of 9C10, 20C6 and 16A8 to either recombinant human MICA extracellular domain recombinant protein monomers or dimers (MICA*019 allele-Fc protein or MICA*001-His protein) as well as other NKG2D ligands MICB and ULBP1-2 was analyzed by Surface Plasmon Resonance (SPR) using a Biacore T100 apparatus to obtain monovalent and bivalent affinity, respectively. Biotinylated anti-MICA antibodies were injected at a constant rate of 10 μl/min over the Sensor Chip CAP flow-cells comprising Biotin CAPture Reagent. MICA-Fc or MICA-His protein, MICB-Fc, ULBP1-Fc or ULBP2-Fc protein is then injected successively (range of concentrations between 0.01-100 nM), with regeneration between injections, and in increasing order over two flowcells simultaneously. Curves are fitted using Biacore T100 Evaluation software.
(a) General Biacore T100 methods. SPR measurements were performed on a Biacore T100 apparatus (Biacore GE Healthcare) at 25° C. In all Biacore experiments HBS-EP+ buffer (Biacore GE Healthcare) or 10 mM sodium acetate pH 7.4, 150 mM NaCl, 0.05% P20 served as running buffer and sensorgrams were analyzed with Biaevaluation 4.1 and Biacore T100 Evaluation software. Recombinant human and mouse TLR3 were purchased from R&D Systems.
On the technique in general: In SPR one partner is held on a chip, and binding of the other changes the refractive index at the surface.

For assay [11], the target named is T4, MICA*007 expressed on C1R transfectant …. Nature of the assay: flow cytometry, MFI against antibody concentration on C1R-MICA*07 cells. The method, then:
as §1, §2

Assay [12] concerns the target T1, MICA*001 expressed on transfected cells. Nature of the assay: flow cytometry on C1R-MICA*001 cells, 3-parameter logistic fit. On the procedure: as §1, §2, §3

Substitutions are numbered along the chain they refer to. Where two headings read alike, the source gives them in different places.

B1: CHG1-M-MIA-12A10 (antibody, V domains shown)
VH: QVQLQQSGADLVRPGASVRLSCRASGYSFTNYWMNWVKQRPGQGLEWIGMIHPSDSETRLNQKFKDKATLTVDKSSNTAYMQLSSPTSEDSAIYYCARDDFFTMDYWGQGTSVTVSS
VL: DILLTQSPAILSVSPGERVSFSCRASQNIVTSIHWYQQSTNGSPRLLIKYASESISGIPSRFSGSGSGTDFTLTINSVESEDVADYYCQQSNIWPLTFGAGTKLELK
In general, EC50 (read off the curve) refers to the concentration that produces a half-maximal response. The low end stands for an effect from little substance, the high end for a need for much substance. Consider B1, for which the half-maximal effective concentration (EC50 (read off the curve)) in assay [1] is around 1 µg/mL.

B2: CHG1-M-MIA-15F9 (antibody, V domains shown)
VH: DVQLQESGPDLVKPSQSLSLTCTVTGYSITSGYSWHWIRQFPGNKLEWMGFIHYSGSTDYNPSLKSRISLTRDTSKNQFFLQLNSVSTEDTATYYCAKDYGHWYFDVWGAGTTVTVSS
VL: SIVMTQTPKFLLVSAGDRVTITCKASQSVSYDVAWYQQKPGQSPKLLIFYASNRYTGVPARFTGSGYGTDFTFTISTVQAEDLAVYFCQQDYSSLTFGAGTKLELK
As to B2, the figures for the 50% effective concentration (EC50 (read off the curve)) in assay [2] and in [3] were around 0.5 µg/mL and around 0.8 µg/mL, respectively. Also, in assay [4], the binding result is “binds”.

B3: antibody 20C6 (antibody, V domains shown)
VH: QITLKESGPGILKPSQTLSLTCSFSGFSLSTSGMGVGWIRQPSGKGLEWLAHIWWDDDKYYNPSLKSQLTISKDTSRNQVFLRITSVDTADTATYYCARRTQGYFDYWGQGTTLTVSS
VL: DIVMTQSPATLSVTPGDRVSLSCRASQSISDYLHWYQQKSHESPRLLIKYASQSISGIPSRFSGSGSGSDFTLSINSVEPEDVGVYYCQNGHSFPWTFGGGTKLEIK
notes: Murine hybridoma antibody of IgG1 isotype as tested
The EC50 is the concentration giving half of the maximal effect. Read a high EC50 as lower potency in that assay. With B3, the “EC50 (read off the curve)” value in assay [5] was around 0.2 µg/mL; in assay [8], around 0.07 µg/mL; in assay [1], around 0.3 µg/mL; in assay [11], around 0.5 µg/mL. In addition, the 50% effective concentration (EC50) in assay [6] came to 1.58 µg/mL; in assay [7], 0.08 µg/mL; in assay [9], 0.17 µg/mL; in assay [12], 0.3 µg/mL. Moreover, the binding result in assay [10] was “binds”.

B4: CHG1-M-MIA-18E8 (antibody, V domains shown)
VH: DVQLQESGPDLVNPSQSLSLICTVTGYSITSDYSWHWIRQFPGNKLEWMGNIHYSGRINYNPSLRSRISITRDTSKNQFFLQLISVTTEDTATYYCATRRTFGNFEDYWGQGTTLTVSS
VL: QIVLSQSPATLSVSPGEKVTMTCRSSSSVNYMHWYQQKPGSSPKPWIYATSTLASGVPARFSGSGSGTSYSLTISRVEAEDAATYYCQQWSSNPLTFGAGTKLELK
Turning to B4, the “EC50 (read off the curve)” value in assay [1] is around 0.5 µg/mL.

B5: CHG1-M-MIA-10F3 (antibody, V domains shown)
VH: QVQLQQSAAELARPGASVKMSCKASGYTFTSYTMHWVKQRPGQGLEWIGYINPSSGYTEYNQKFKDKTTLTVDKSSTTSYMQLSSLTSDNSAVYYCARGGDWDVDWFVYWGQGTLVTVSA
VL: QIVLTQSPAIMSASPGEKVTITCSASSSISYMHWFQQKPGTSPKLWIYSTSKLASGVPARFSGSGSGTSHSLTISRMEAEDAATYYCQHRSTYPFTFGSGTKLEIK
With B5, the “EC50 (read off the curve)” value in [1] was around 0.5 µg/mL.
